In publication PMC3635657 (Biochemical Journal, 2013):
One block for each molecule: values may come before it.

B1: TorD^His (hexahistidine-tagged TorD) (natural protein, E. coli, UniProt P36662 1-199, looked up)
chain: MTTLTAQQIACVYAWLAQLFSRELDDEQLTQIASAQMAEWFSLLKSEPPLTAAVNELENRIATLTVRDDARLELAADFCGLFLMTDKQAALPYASAYKQDEQEIKRLLVEAGMETSGNFNEPADHLAIYLELLSHLHFSLGEGTVPARRIDSLRQKTLTALWQWLPEFVARCRQYDSFGFYAALSQLLLVLVECDHQNR
B2: TorAΔSP (TorA Δ2–39, lacking its entire Tat signal peptide) (domain or fragment, E. coli, UniProt P33225 40-848, looked up)
chain: AQAATDAVISKEGILTGSHWGAIRATVKDGRFVAAKPFELDKYPSKMIAGLPDHVHNAARIRYPMVRVDWLRKRHLSDTSQRGDNRFVRVSWDEALDMFYEELERVQKTHGPSALLTASGWQSTGMFHNASGMLAKAIALHGNSVGTGGDYSTGAAQVILPRVVGSMEVYEQQTSWPLVLQNSKTIVLWGSDLLKNQQANWWCPDHDVYEYYAQLKAKVAAGEIEVISIDPVVTSTHEYLGREHVKHIAVNPQTDVPLQLALAHTLYSENLYDKNFLANYCVGFEQFLPYLLGEKDGQPKDAAWAEKLTGIDAETIRGLARQMAANRTQIIAGWCVQRMQHGEQWAWMIVVLAAMLGQIGLPGGGFGFGWHYNGAGTPGRKGVILSGFSGSTSIPPVHDNSDYKGYSSTIPIARFIDAILEPGKVINWNGKSVKLPPLKMCIFAGTNPFHRHQQINRIIEGLRKLETVIAIDNQWTSTCRFADIVLPATTQFERNDLDQYGNHSNRGIIAMKQVVPPQFEARNDFDIFRELCRRFNREEAFTEGLDEMGWLKRIWQEGVQQGKGRGVHLPAFDDFWNNKEYVEFDHPQMFVRHQAFREDPDLEPLGTPSGLIEIYSKTIADMNYDDCQGHPMWFEKIERSHGGPGSQKYPLHLQSVHPDFRLHSQLCESETLRQQYTVAGKEPVFINPQDASARGIRNGDVVRVFNARGQVLAGAVVSDRYAPGVARIHEGAWYDPDKGGEPGALCKYGNPNVLTIDIGTSQLAQATSAHTTLVEIEKYNGTVEQVTAFNGPVEMVAQCEYVPASQVKS
B3: TorAΔCT (TorA Δ676–848, lacking its entire C-terminal Domain IV) (domain or fragment, E. coli, UniProt P33225 1-675, looked up)
chain: MNNNDLFQASRRRFLAQLGGLTVAGMLGPSLLTPRRATAAQAATDAVISKEGILTGSHWGAIRATVKDGRFVAAKPFELDKYPSKMIAGLPDHVHNAARIRYPMVRVDWLRKRHLSDTSQRGDNRFVRVSWDEALDMFYEELERVQKTHGPSALLTASGWQSTGMFHNASGMLAKAIALHGNSVGTGGDYSTGAAQVILPRVVGSMEVYEQQTSWPLVLQNSKTIVLWGSDLLKNQQANWWCPDHDVYEYYAQLKAKVAAGEIEVISIDPVVTSTHEYLGREHVKHIAVNPQTDVPLQLALAHTLYSENLYDKNFLANYCVGFEQFLPYLLGEKDGQPKDAAWAEKLTGIDAETIRGLARQMAANRTQIIAGWCVQRMQHGEQWAWMIVVLAAMLGQIGLPGGGFGFGWHYNGAGTPGRKGVILSGFSGSTSIPPVHDNSDYKGYSSTIPIARFIDAILEPGKVINWNGKSVKLPPLKMCIFAGTNPFHRHQQINRIIEGLRKLETVIAIDNQWTSTCRFADIVLPATTQFERNDLDQYGNHSNRGIIAMKQVVPPQFEARNDFDIFRELCRRFNREEAFTEGLDEMGWLKRIWQEGVQQGKGRGVHLPAFDDFWNNKEYVEFDHPQMFVRHQAFREDPDLEPLGTPSGLIEIYSKTIADMNYDDCQGHPMWFEK

Legend:
[1] = target: TorA signal peptide signal peptide (Escherichia coli) (UniProt P33225); details: cited from earlier work
[2] = target: TorD^His (hexahistidine-tagged TorD) (E. coli) (UniProt P36662); test: SEC-MALS
[3] = target: B2; test: pull-down
[4] = target: B1; test: SEC-MALS

Molecule: TorD (from UniProt P36662)
Kd [1]: 59 nM

stoichiometry N [2]: 1
Molecule: TorA, full-length precursor (trimethylamine N-oxide reductase), cofactor-free (from UniProt P33225 40-848) (natural protein)

Molecule: B1
binding result [3]: binds

Molecule: B2
stoichiometry N [4]: 1

Molecule: B3
stoichiometry N [4]: 1
